In test [1] the target is HLA-A*31:01. Kind of test: IEDB peptide-MHC binding, purified MHC/competitive/fluorescence; filed as Kd, often an IC50 or EC50 that approximates it; ≥ and ≤ were set here for values at or beyond the usual limits of such assays. As to conditions: source organism: Influenza A virus H3N2.
The target of the next test is HLA-A*24:02. Kind of test: IEDB peptide-MHC binding, purified MHC/direct/fluorescence; filed as Kd, often an IC50 or EC50 that approximates it; ≥ and ≤ were set here for values at or beyond the usual limits of such assays.
The target in test [2] is HLA-B*07:02. The test is described as above.
In the next test the target is HLA-A*26:01. The test is described as above.
Test [3] deals with HLA-A*24:03. The test is described as above.
The target in test [4] is HLA-A*69:01. Described as above.
The target of a further test is HLA-A*01:01. Described as above.
Test [5] concerns the target HLA-A*03:01. The test is described as above.
The next test concerns the target HLA-B*44:02. The test is described as above.
For test [6], the target named is HLA-B*15:01. Described as above. As to conditions: source organism: Influenza A virus (A/goose/Guangxi/1097/2004(H5N1)).
Test [7] has as its target HLA-A*02:01. The description is as above.
The target in test [8] is HLA-A*11:01. The test is described as above.
For a further test, the target named is HLA-B*08:02. Described as above. As to conditions: source organism: Influenza A virus(A/swine/Shandong/fNY/2003(H9N2)).
The next test has as its target HLA-B*46:01. The test is described as above.
A further test has as its target HLA-B*58:01. The test is described as above.
In the next test the target is HLA-B*40:01. The description is as above.
The target of another test is HLA-B*18:01. The test is described as above.
The next test has as its target HLA-B*27:05. The description is as above.
In test [9] the target is HLA-B*08:01. Described as above.
Test [10] concerns the target HLA-A*24:03. Kind of test: IEDB peptide-MHC binding, purified MHC/competitive/fluorescence; filed as Kd, often an IC50 or EC50 that approximates it; ≥ and ≤ were set here for values at or beyond the usual limits of such assays.
The target in test [11] is HLA-B*07:02. Described as above. Conditions: source organism: Vaccinia virus WR.
In test [12] the target is HLA-A*03:01. The description is as above. Conditions: source organism: Vaccinia virus WR.
Test [13] concerns the target HLA-B*08:01. The description is as above.
The next test deals with HLA-C*12:03. Kind of test: IEDB peptide-MHC binding, purified MHC/direct/fluorescence; filed as Kd, often an IC50 or EC50 that approximates it; ≥ and ≤ were set here for values at or beyond the usual limits of such assays. As to conditions: source organism: Foot-and-mouth disease virus C1.
In test [14] the target is HLA-A*69:01. Kind of test: IEDB peptide-MHC binding, purified MHC/competitive/fluorescence; filed as Kd, often an IC50 or EC50 that approximates it; ≥ and ≤ were set here for values at or beyond the usual limits of such assays. Conditions: source organism: Homo sapiens.
Test [15] has as its target HLA-A*02:01. Described as above. As to conditions: source organism: Homo sapiens.
The target in a further test is HLA-A*02:03. Described as above. As to conditions: source organism: Homo sapiens.
For test [16], the target named is HLA-A*31:01. Kind of test: IEDB peptide-MHC binding, purified MHC/direct/fluorescence; filed as Kd, often an IC50 or EC50 that approximates it; ≥ and ≤ were set here for values at or beyond the usual limits of such assays.
The target of test [17] is HLA-B*15:01. Kind of test: IEDB peptide-MHC binding, purified MHC/competitive/fluorescence; filed as Kd, often an IC50 or EC50 that approximates it; ≥ and ≤ were set here for values at or beyond the usual limits of such assays. As to conditions: source organism: Bacillus anthracis str. A0389.
For test [18], the target named is HLA-A*11:01. The test is described as above. Conditions: source organism: Bacillus anthracis str. A0389.
Another test addresses HLA-B*15:17. Kind of test: IEDB peptide-MHC binding, purified MHC/direct/fluorescence; filed as Kd, often an IC50 or EC50 that approximates it; ≥ and ≤ were set here for values at or beyond the usual limits of such assays.
A further test has as its target HLA-B*57:01. The description is as above. As to conditions: source organism: Bacillus anthracis.
The target in another test is HLA-B*48:01. The description is as above. As to conditions: source organism: Bacillus anthracis.
The target in another test is HLA-C*15:02. Described as above. As to conditions: source organism: Yellow fever virus.
[19] abbreviates: source organism: Influenza A virus (A/goose/Guangxi/1097/2004(H5N1)).
[20] abbreviates: source organism: Influenza A virus (A/swine/Hong Kong/5190/99(H3N2)).
The mark [21] stands for this setting: source organism: Bacillus anthracis.

On to KYTSGRQEK, for which the equilibrium dissociation constant (Kd) in the test with HLA-A*31:01 [1] is 268 nM; in the test with HLA-A*24:02 (setting [19]), not below 20 µM; with HLA-B*07:02 [2] (setting [19]), not below 20 µM; with HLA-A*26:01 (source organism: Influenza A virus(A/swine/Shandong/fNY/2003(H9N2))), not below 20 µM; with HLA-A*24:03 [3] (setting [19]) it was not below 20000 nM; with HLA-A*69:01 [4] (setting [19]), not below 20 µM. The Kd with HLA-A*01:01 (setting [19]) is not below 20000 nM; with HLA-A*03:01 [5] (setting [19]), not below 20 µM; with HLA-B*44:02 (setting [19]), not below 20 µM; with HLA-B*15:01 [6], not below 20 µM; with HLA-A*02:01 [7] (setting [19]), not below 20 µM; with HLA-A*11:01 [8] (setting [19]), not below 20 µM. The Kd with HLA-B*08:02, with HLA-B*46:01 (setting [19]), with HLA-B*58:01 (setting [19]), in the test with HLA-B*40:01 (setting [19]), with HLA-B*18:01 (setting [19]) and with HLA-B*27:05 (setting [19]) was not below 20 µM each time. Besides, the Kd with HLA-B*08:01 [9] (setting [19]) was not below 20 µM.
IYQARFMKY: the Kd was 0.8 nM with HLA-A*24:03 [10] (source organism: Pseudomonas aeruginosa PACS2) and not below 20 µM in the test with HLA-A*69:01 [4] (source organism: Burkholderia mallei).
Take LSDLKKTIY: the Kd is not below 20 µM in the test with HLA-B*07:02 [11], not below 20 µM in the test with HLA-A*03:01 [12], not below 20 µM in the test with HLA-B*08:01 [13] (source organism: Vaccinia virus WR) and 3.5 nM in the test with HLA-A*01:01 (source organism: Cowpox virus (Brighton Red)).
Take CYPYDVPDY: the Kd in the test with HLA-A*24:03 [10] (source organism: Influenza A virus) came to 223 nM.
For MTAHITVPY, in the test with HLA-C*12:03, the Kd stood at 45 nM. This counts as double-digit nanomolar.
Take FLHSGTAKS: the Kd was not below 20 µM with HLA-A*69:01 [14], 18.4 nM with HLA-A*02:01 [15] and 1.25 nM with HLA-A*02:03.
GYMFESKSM: the Kd is not below 20 µM with HLA-A*24:02 (setting [20]); not below 20 µM with HLA-B*07:02 [2] (setting [20]); not below 20 µM in the test with HLA-A*26:01 (source organism: Influenza A virus(A/swine/Henan/5/2004(H9N2))); 67.7 nM with HLA-A*24:03 [3] (setting [20]); not below 20 µM in the test with HLA-A*69:01 [4] (setting [20]); not below 20000 nM with HLA-A*01:01 (setting [20]). The Kd in the test with HLA-A*03:01 [5] (setting [20]), in the test with HLA-B*44:02 (setting [20]), with HLA-A*31:01 [16] (setting [20]), with HLA-A*02:01 [7] (setting [20]), in the test with HLA-A*11:01 [8] (setting [20]) and with HLA-B*58:01 (setting [20]) was not below 20 µM each time. Besides, the Kd with HLA-B*40:01 (setting [20]), with HLA-B*27:05 (setting [20]) and with HLA-B*08:01 [9] (setting [20]) was not below 20 µM in each case.
VTECKLIYY: the Kd with HLA-B*15:01 [17] was not below 20 µM; in the test with HLA-A*11:01 [18] it was 1260 nM; in the test with HLA-A*69:01 [4] (setting [21]), not below 20 µM; in the test with HLA-A*01:01 (setting [21]), 7 nM; with HLA-A*03:01 [5] (setting [21]), not below 20 µM; with HLA-A*31:01 [16] (setting [21]) it was not below 20 µM. For the same sequence, the Kd with HLA-B*15:17 (setting [21]) is 34.7 nM; in the test with HLA-B*57:01 it was not below 20 µM; with HLA-B*48:01 it was not below 20 µM; in the test with HLA-A*02:01 [7] (setting [21]), not below 20 µM; with HLA-B*46:01 (setting [21]) it was not below 20 µM; in the test with HLA-B*58:01 (setting [21]), not below 20 µM. The Kd with HLA-B*40:01 (setting [21]), with HLA-B*18:01 (setting [21]), with HLA-B*27:05 (setting [21]) and in the test with HLA-B*08:01 [9] (source organism: Bacillus cereus 03BB108) was not below 20 µM throughout.
In the case of QLRENAEDM, in the test with HLA-B*08:01 [13] (source organism: Influenza A virus (A/swine/Hong Kong/81/1978(H3N2))), the Kd turned out to be 5.3 µM.
For KTNDRKWCF, the Kd in the test with HLA-C*15:02 came out at 849 nM; in the test with HLA-B*15:17 (source organism: Yellow fever virus 17D), 26.6 nM.

The record behind these values is the Immune Epitope Database (IEDB).
